The values below come from paper PMC546161.

Assay [1] addresses His-Cdt1(193–447) (Xenopus) (UniProt Q9I9A7). Briefly: Coomassie densitometry of the purified complex on SDS-PAGE.
Assay [2] shares this target. Briefly: SEC + other: glycerol gradient sedimentation.

UniProt Q9I9A7, sequence (Q9I9A7 193-447): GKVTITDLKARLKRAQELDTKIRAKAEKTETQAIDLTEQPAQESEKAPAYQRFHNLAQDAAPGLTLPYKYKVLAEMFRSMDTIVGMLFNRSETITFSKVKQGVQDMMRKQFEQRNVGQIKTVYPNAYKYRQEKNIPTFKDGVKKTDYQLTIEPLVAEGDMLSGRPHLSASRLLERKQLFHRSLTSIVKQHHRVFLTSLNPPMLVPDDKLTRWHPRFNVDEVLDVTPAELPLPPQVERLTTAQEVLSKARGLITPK

“mini-geminin (residues 87–168), S-tagged (domain or fragment)”: the figures for the stoichiometry N (mini-geminin per Cdt1(193–447)) in assay [1] and in assay [2] were 1.9 and 2, respectively.
